The record followed here is the DeepSol protein solubility set.

This data set in a line: soluble on expression in E. coli; label from the status in PepcDB or PDB records.
On to “MGSDKIHHHHHHMVSPEHLRRSKAVQRRTGRTFHIATRFLPERVRYPTYVLYAFFRLTDEIVDDEAPGPPDEQRRRLAHVRAAALGDRDPDDPVLAAFAALREDHDIPREEVTTFIDAMQQDVDTARYRSHDDLAEYLRGSSVAVGYMMLSIMDAPEPERARPHAASLGEAFQLTNFLRDVREDVLDYDRIYLPSQTLAAHGASHDDIAALSATPQVRDAIRAELDRTERLYRHGVAGIEHLPADCQFPVLAAAVMYADQHRLIRAQDCDVLSQRPTLTLRRRLSVVARTWLRWRVSDDPTAVFHAVTGIGEPDAGGVPEQSFAVRESQPTRAD”, for which the “soluble on expression in E. coli” value is given as “not soluble”. As for “MGSDKIHHHHHHMANLNDFTFFVHVVDHGGFAPAARALNLPKSTLSKRVAELEKDLGVRLINRTSRHFAVTESGKDFYRHAAAMMIEAEAAENVVRGRLAEPSGTVRITASVPTAQLSLAPLLPQLALAYPKLRVTLHATDRFVDVIQDGFDLAVRDHFAPLPDSGLVQRRIGFQAKLIVASPLYLQGNGTPERPEDLDHHDGLLTSLASEGWVMERADGSTVSVSPRPRFVADESRVLREAALAGLGITTLPGKLCQQEIESGTLIRILPEWTAGKVMTTILMPHRRGQLPSVRATVDFIAERLVDG”, the entry is “not soluble”; as for “MANMTFSLPDPMKDWIESRIQKGEYASASDYVRDLVRRDWARRGQDFSIDELRQIVAESRASGVGSRSMDDLFAEAERVATAHGVMRE”, “not soluble”; as for “MEKKPWEEDISIEEFKKSLNKDKITNLIIKRRWNKGKSTYHLSFNGDFEVVTKKPSTKYVTHKQLDQKLKEFKQDLMVELHDTFATKADLRDSEARINQKLEALVQVVLLHGEQINKLTQIVEKQGEQIRELQVEQKAQRQEFNARMDRLENLLVESIESTNKRFDSIEGRLDSMDSRLDSMENRLDSIEGRLDSVEGRLDSVEGRLDSMENRLDSMETRLDKIDPPK”, “soluble”. Consider “MGSDKIHHHHHHMKDILKELKKKLSEEDFNKFNGRVTRVVGLTVESKGPDAFLGEMCKISLQNGKNALAEVVGFREESVILMPYEDVSGLKMGCEVIRTNKVLEVGVSRKMIGRVFDGLGRPIDGKPFVPEDRYPLINNPPNPLKRRRIKDPLPVGIRSIDGFITIGKGQRIGIFAGSGVGKSTLLGMIARNTTADINVLALIGERGREVREFIERDLGEEGLKRSILVVSTSDQPALARVKSLLTATSIAEFFRDLGYDVLLMVDSLTRWAMAQREVGLAVGEPPTTRGYPPSVFAGLPKILERAGNSDKGSITAIYTVLVEADDFNEPISDTVRSIVDGHIILSRRLAESNHYPAVDVLASVSRLMNDIVTEEHREAANRLRSLMSAYESAKDLIEIGAYKSGTNPLVDKAVEMKDEIDSFLKQGVFEKASFEETLQKLLDLYLRSLD”, for which the “soluble on expression in E. coli” value was “not soluble”. “MRIALFTDTYIPQVNGVARTMKRLVDHLEKRQVEYALYMPETIEKLDRFESNIHTFASLPFFLYPECRIALPNVFKLRQQLTSFQPDLLHIATPFNVGLSGLQHGKKYGIPMVGSYHTHFDHYLHYYKLQFMSAWLWKYVKWFHQPFERTFVPSVETMRHLQKHGFQRLALWTRGVDCERFHPKQRHRSYAINLLPKDKAVLLYVGRLAPEKDLATLVAIMSLLPRELNEKIQWMIVGDGPSLPEMKKQCPSNVTFTGYLKGEELAAAYASADLFVFPSATETFGNVVLEAFASGTPAIVADRGGVTEIVEHGKSGMICKAGDAHTFIQAIEHLLMNRSKRAEMGYEARQYALTQSWERIFDDLLEQYEQVIFHHKKRHLALEHHHHHH”: the “soluble on expression in E. coli” value was “not soluble”.

Regarding “MGSDKIHHHHHHMKVLVPATTTNLGAGFDVFGLALDLFNEVEFSFDTKETTIESTGKYASDLKDHNLFFEVLRFFERKTGYRVPPVRIKQTCNIPVSSGLGSSAAVIVAALHIANEGTGRNLSREDLMKLAVELEGHPDNVVPAFTGGLVVCYQNGSHLDFEKFEIDLSLTFLVPNFPVCTNEMRKILPEKVPFEDAVFNIKNSCQFLAKIAAGKIKEALKYVGDRLHQNYRINGNKKMKEFVEAILSKNPEYWFVSGSGPSVCSNINDFEGIPYLKDVLKLRVNNRGMIVSE”, the “soluble on expression in E. coli” value is “not soluble”.
